Measurements: publication PMC10787225 (Computational and Structural Biotechnology Journal, 2023)

Legend:
[1] = system: β-wrapin AS10; test: 1H-15N HSQC NMR detection of β-hairpin formation upon AS10 binding; conditions: 25 °C; for NMR signature of β-hairpin folding coupled to AS10 binding (1H–15N HSQC of 15N-AS10): 100 µM 15N-AS10 mixed with 20% molar excess of peptide, pH 7.4; for NMR β-hairpin: 100 µM 15N-AS10 with 20% molar excess of peptide, 20 mM sodium phosphate, pH 7.4, 50 mM NaCl
Experimental: The NMR spectra were acquired at 25 °C using VNMRS instruments (Varian) at proton frequencies of 800 and 900 MHz, each equipped with a cryogenically cooled Z-axis pulse-field-gradient (PFG) triple resonance probe. The sample buffer was 20 mM sodium phosphate, pH 7.4, 50 mM NaCl, supplemented with 10% D2O. For detection of complex formation, samples contained 100 μM ^15N-labeled AS10, expressed and purified as described, [43], and a 20% excess of the unlabeled peptide. For determination of β-sheet registries, NMR samples contained ^13C^15N-labeled fusion constructs in concentrations between 360–700 μM. Backbone assignments were obtained using BEST-TROSY experiments. Nuclear Overhauser effect (NOE) based distance restraints for β-sheet registry determination were derived from 3D (^1H–^1H-^15N)-NOESY-HSQC (120 ms mixing time) and (^1H–^13Cali-^1H)-HSQC-NOESY (100 ms mixing time) experiments. NMR data were processed using NMRPipe and analyzed with CcpNMR [50].
To test for β-hairpin formation in the peptides upon binding to AS10 we performed NMR spectroscopy. ^1H–^15N HSQC NMR spectroscopy using ^15N-labeled AS10 (^15N-AS10) and unlabeled binding partner leads to characteristic changes upon β-hairpin folding coupled to binding. These include a great increase in resonance dispersion, appearance of four amide proton resonances in the glycine region (^15N chemical shift <110 ppm) stemming from Gly-13 and Gly-14 in the two AS10-subunits, as well as appearance of amide proton resonances with shift values typical for β-sheet conformation (high ^1H and high ^15N chemical shifts).

[2] = Thioflavin T (ThT) aggregation assay; format: physicochemical; conditions: for Shape of ThT time course / kind of aggregates: 20–550 µM peptide; for Shape of ThT time course / kind of aggregates / ThT / ThT fluorescence time course: 20 mM NaPi, pH 7.4, 50 mM NaCl, 37 °C; for ThT: peptide 20–550 µM, up to 85 h, 300 rpm, glass bead; for ThT / ThT fluorescence time course: 25 µM ThT, triplicate; for ThT fluorescence of peptide alone: 50 mM Tris, pH 8.5, 37 °C, 40 µM ThT
Experimental: All ThT aggregation assays were done in Greiner 96-well half-area, clear bottom, low-binding plates. The measurements themselves were done in a BMG CLARIOstar plate reader at 37 °C and 300 rpm shaking in orbital mode with one glass bead (0.75–1 mm, Roth) per well. Wells with samples were always surrounded by wells filled with liquid, either other samples or 150 μl water, to counter potential artefacts due to evaporation. […] Final concentrations of 25 µM ThT and 0.04% sodium azide (NaN3) were added. The plate was sealed with sealing tape and put into the plate reader, heated to 37 °C, and ThT fluorescence was read in 1000 cycles of 300 s each using bottom optics with excitation at 448 nm (10 nm bandwidth) and emission at 482 nm (10 nm bandwidth). […] Samples contained 40 µM ThT and 0.04% NaN3.
(§1) Fig. 4 Test set of eight protein segments. (A) List of the investigated peptides. Underlined stretches in the peptide sequences correspond to the predicted amyloidogenic β-hairpins. A peptide was considered ‘soluble’ when no visible precipitation occurred upon dissolution of the lyophilized peptide in 20 mM NaPi, pH 7.4, 50 mM NaCl, to a final concentration of 20 µM. […] (B) Conformations of investigated segments (red) in the context of their source proteins.

[3] = Solubility by visible precipitation upon dissolution of lyophilized peptide; conditions: aqueous buffer, µM concentrations, neutral pH; visual
Experimental: as §1

[4] = Atomic force microscopy (AFM) of samples at the end of ThT aggregation assays; format: physicochemical; conditions: for AFM aggregate morphology: end of ThT aggregation assay in 20 mM NaPi, pH 7.4, 50 mM NaCl, dried on mica; for AFM aggregate morphology of individual peptide: end of ThT assay at moderate peptide concentrations without ThT fluorescence, 50 mM Tris, pH 8.5
Experimental: (§2) For AFM imaging, 2 μl samples were taken out of the wells at the end of the ThT aggregation assays, put onto a freshly cleaved muscovite mica surface and dried during incubation for 10 min under the clean bench. Subsequently, the samples were washed with 100 μl ddH2O in three steps and dried with a stream of N2 gas. Imaging was performed in intermittent contact mode (AC mode) in a JPK NanoWizard 3 atomic force microscope using a silicon cantilever with silicon tip (OMCL-AC160TS-R3, Olympus) with a typical tip radius of 9 ± 2 nm, a force constant of 26 N/m and resonance frequency around 300 kHz. The images were processed using JPK DP Data Processing Software (version spm-5.0.84).

[5] = target: β-wrapin AS10; test: Isothermal titration calorimetry (ITC) of peptide binding to AS10; conditions: 30 °C, 30 µM AS10 in cell, peptide titrated from syringe, 20 mM sodium phosphate, pH 7.4, 50 mM NaCl, 1:1 binding model
Experimental: ITC was performed at 30 °C using a Microcal iTC200 calorimeter (GE Healthcare). AS10 was filled into the cell at a concentration of 30 µM in 20 mM sodium phosphate, pH 7.4, 50 mM NaCl. Peptides were titrated from the syringe in approximately 10-fold higher concentrations. Heats of post-saturation injections were averaged and subtracted from each injection to correct for heats of dilution and mixing. Dissociation constants were obtained from a nonlinear least-squares fit to a 1:1 binding model using MicroCal Origin.

[6] = target: β-wrapin AS10; test: ITC; 30 µM AS10 in the cell, peptides titrated from the syringe at approximately 10-fold higher concentrations; 30 °C; 20 mM sodium phosphate, pH 7.4, 50 mM NaCl; fit to a 1:1 binding model
[7] = system: PAP(248−286); test: ThT aggregation assay and AFM of PAP(248−286) in presence of added peptide; format: biochemical, human; conditions: 500 µM PAP(248−286), added peptide 25–100 µM, 50 mM Tris, pH 8.5, 37 °C, 40 µM ThT
Experimental: (§3) All ThT aggregation assays were done in Greiner 96-well half-area, clear bottom, low-binding plates. The measurements themselves were done in a BMG CLARIOstar plate reader at 37 °C and 300 rpm shaking in orbital mode with one glass bead (0.75–1 mm, Roth) per well. Wells with samples were always surrounded by wells filled with liquid, either other samples or 150 μl water, to counter potential artefacts due to evaporation. […] Final concentrations of 25 µM ThT and 0.04% sodium azide (NaN3) were added. The plate was sealed with sealing tape and put into the plate reader, heated to 37 °C, and ThT fluorescence was read in 1000 cycles of 300 s each using bottom optics with excitation at 448 nm (10 nm bandwidth) and emission at 482 nm (10 nm bandwidth). […] PAP(248−286) and SEM1(86−107) were kept at constant concentrations of 500 and 300 µM, respectively. […] Samples contained 40 µM ThT and 0.04% NaN3.
as §2

[8] = system: SEM1(86−107); test: ThT aggregation assay and AFM of SEM1(86−107) in presence of added peptide; format: biochemical, human; conditions: 300 µM SEM1(86−107), added peptide 25–100 µM, 50 mM Tris, pH 8.5, 37 °C, 40 µM ThT
Experimental: as §3, §2

[9] = peptide alone 25–100 µM (up to 100 µM)

Molecule: 3-PGDH(298−319): synthetic peptide of predicted β-hairpin-forming amyloidogenic segment 298−319 of 3-PGDH (EIAVQFVDMVKGKSLTGVVNAQ; UniProt O43175 298-319, looked up, fragment)
- NMR signature of β-hairpin folding coupled to AS10 binding (1H–15N HSQC of 15N-AS10) [1]: no change
- Shape of ThT time course / kind of aggregates [2]: can form both ThT-positive as well as ThT-negative aggregates
- ThT [2]: +
- Precipitate formation upon dissolution [3]: immediate precipitate formation upon dissolution

Molecule: CYP2W1(176−204): synthetic peptide of predicted β-hairpin-forming amyloidogenic segment 176−204 of CYP2W1 (SNITFALLFGRRFDYRDPVFVSLLGLIDE)
- NMR signature of β-hairpin folding coupled to AS10 binding (1H–15N HSQC of 15N-AS10) [1]: signature was also observed
- NMR β-hairpin [1]: +
- Shape of ThT time course / kind of aggregates [2]: ThT fluorescence was high from the beginning
- ThT [2]: +
- Precipitate formation upon dissolution [3]: immediate precipitation
- AFM aggregate morphology [4]: fibrillar aggregates confirming amyloid formation were detected

Molecule: MIC26(153−178): synthetic peptide of predicted β-hairpin-forming amyloidogenic segment 153−178 of MIC26 (QQAIVFAQVSGERLYDWGLRGYIVIE; UniProt Q9BUR5 153-178, looked up, fragment)
- NMR signature of β-hairpin folding coupled to AS10 binding (1H–15N HSQC of 15N-AS10) [1]: no change
- Shape of ThT time course / kind of aggregates [2]: ThT fluorescence was high from the beginning
- ThT [2]: +
- Precipitate formation upon dissolution [3]: immediate precipitation
- AFM aggregate morphology [4]: fibrillar aggregates confirming amyloid formation were detected

Molecule: NBPF1(928−946): synthetic peptide of predicted β-hairpin-forming amyloidogenic segment 928−946 of NBPF1 (RSAFYILEQQRVGWALDMD)
- Affinity to AS10 (dissociation constant KD) [5]: heat signals were not observed
- NMR signature of β-hairpin folding coupled to AS10 binding (1H–15N HSQC of 15N-AS10) [1]: no change
- ThT fluorescence time course ([2]; 20–25 µM peptide): no increase in fluorescence intensity was detected
- ThT fluorescence time course ([2]; peptide increased to 500–550 µM): remained ThT negative

Molecule: NDUFS7(104−129) (from UniProt O75251 104-129) (peptide)
- Kd [6]: 4.7 µM

Molecule: PAP Str1(186−194): β-strand peptide, constituent segment 186−194 of PAP(185−208) (DFIATLGKL)
- Effect of added peptide on ThT time trace of PAP(248−286) [7]: ThT time traces exhibited additional phases of rapid growth
- ThT fluorescence of peptide alone [2, 9]: concentration-dependent increase in ThT fluorescence within minutes to a few hours
- Effect of added peptide on ThT time trace of SEM1(86−107) [8]: ThT time traces exhibited additional phases of rapid growth

Molecule: PAP Str2(200−208): β-strand peptide, constituent segment 200−208 of PAP(185−208)
- Effect of added peptide on ThT time trace of PAP(248−286) [7]: induced increases in ThT fluorescence, albeit with somewhat longer lag-times
- ThT fluorescence of peptide alone [2, 9]: do not exhibit ThT fluorescene
- Effect of added peptide on ThT time trace of SEM1(86−107) [8]: induced increases in ThT fluorescence, albeit with somewhat longer lag-times

Molecule: PAP(248−286): PAP fragment which forms functional amyloid in semen (GIHKQKEKSRLQGGVLVNEILNHMKRATQIPSYKKLIMY) [reference compound]
- ThT fluorescence of peptide alone ([2]; peptide alone 500 µM): did not exhibit ThT fluorescence
- AFM aggregate morphology of individual peptide [4]: aggregates of amorphous shape

Molecule: SEM1(86−107): semen amyloid peptide, fragment of semenogelin-1 (DLNALHKTTKSQRHLGGSQQLL) [reference compound]
- ThT fluorescence of peptide alone ([2]; peptide alone 300 µM): did not exhibit ThT fluorescence
- AFM aggregate morphology of individual peptide [4]: aggregates of amorphous shape

Molecule: TTC5(335−361): synthetic peptide of predicted β-hairpin-forming amyloidogenic segment 335−361 of TTC5 (AVILGKVVFSLTTEEKVPFTFGLVDSD)
- Kd ([5]; read-out: Affinity to AS10 (dissociation constant KD)): 4.7 ± 0.9 µM
- NMR signature of β-hairpin folding coupled to AS10 binding (1H–15N HSQC of 15N-AS10) [1]: signature was observed
- NMR β-hairpin [1]: +
- ThT [2]: +

B1: PAP(185−208) (peptide)
peptide: KDFIATLGKLSGLHGQDLFGIWSK
- Kd [6]: 39 µM

B2: TTC5(335−361) (peptide)
peptide: AVILGKVVFSLTTEEKVPFTFGLVDSD
- Kd [6]: 4.7 µM
